Assay results as given in patent US20250092426, “CAS ENDONUCLEASES AND RELATED METHODS” (Flagship Pioneering Innovations VII, LLC, published 2025).

Target: T1, CasEnd-6 (synthetic construct)
T1 chain: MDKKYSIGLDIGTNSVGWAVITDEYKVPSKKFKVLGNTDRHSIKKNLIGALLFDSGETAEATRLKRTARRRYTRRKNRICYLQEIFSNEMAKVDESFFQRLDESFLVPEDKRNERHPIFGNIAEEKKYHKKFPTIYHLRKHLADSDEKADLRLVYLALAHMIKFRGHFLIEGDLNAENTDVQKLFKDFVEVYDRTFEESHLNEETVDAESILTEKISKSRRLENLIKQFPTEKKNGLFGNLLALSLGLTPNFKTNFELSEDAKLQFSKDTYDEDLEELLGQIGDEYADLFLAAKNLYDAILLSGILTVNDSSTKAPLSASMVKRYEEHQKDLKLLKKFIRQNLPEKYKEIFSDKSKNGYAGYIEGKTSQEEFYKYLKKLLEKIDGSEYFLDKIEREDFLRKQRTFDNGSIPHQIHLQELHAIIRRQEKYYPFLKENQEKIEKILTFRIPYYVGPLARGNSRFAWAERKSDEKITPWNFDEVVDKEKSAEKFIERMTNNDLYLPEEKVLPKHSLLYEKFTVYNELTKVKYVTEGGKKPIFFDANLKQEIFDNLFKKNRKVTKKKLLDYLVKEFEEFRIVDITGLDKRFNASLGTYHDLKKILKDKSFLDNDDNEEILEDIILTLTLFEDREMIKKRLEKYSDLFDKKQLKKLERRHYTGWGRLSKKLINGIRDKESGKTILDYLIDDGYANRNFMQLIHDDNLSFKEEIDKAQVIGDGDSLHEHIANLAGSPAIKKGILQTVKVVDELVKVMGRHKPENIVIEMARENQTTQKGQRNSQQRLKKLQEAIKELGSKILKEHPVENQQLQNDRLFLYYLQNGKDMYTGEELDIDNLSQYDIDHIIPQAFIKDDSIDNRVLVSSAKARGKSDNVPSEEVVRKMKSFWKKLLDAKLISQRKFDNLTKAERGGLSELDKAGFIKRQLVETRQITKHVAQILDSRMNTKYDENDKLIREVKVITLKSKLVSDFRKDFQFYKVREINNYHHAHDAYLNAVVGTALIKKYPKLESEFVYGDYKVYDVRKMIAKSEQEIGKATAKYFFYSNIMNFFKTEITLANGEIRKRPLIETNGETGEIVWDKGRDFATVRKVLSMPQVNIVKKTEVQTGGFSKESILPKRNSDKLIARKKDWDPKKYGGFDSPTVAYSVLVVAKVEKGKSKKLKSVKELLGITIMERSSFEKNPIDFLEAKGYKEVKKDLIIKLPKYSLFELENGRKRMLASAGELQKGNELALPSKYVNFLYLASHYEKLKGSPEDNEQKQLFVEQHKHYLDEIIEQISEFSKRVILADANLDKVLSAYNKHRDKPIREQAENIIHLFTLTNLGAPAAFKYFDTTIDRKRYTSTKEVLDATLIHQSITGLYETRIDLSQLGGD
Experiment: cell_activity; +++; HEK293T; PAM not stated
In short: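 Editing activity was scored as the fraction of GFP+ cells on day 4 by flow cytometry. BFP-expressing HEK293T cells (250,000) received by nucleofection 200 ng plasmid for the RT-Cas fusion protein and 200 ng template RNA plasmid designed to convert BFP to GFP.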

B1: BFP-to-GFP template RNA ; BFP reporter protospacer (ssRNA ; dsDNA)
RNA: GCCGAAGCACUGCACGCCGUGUUUUAGAGCUAGAAAUAGCAAGUUAAAAUAAGGCUAGUCCGUUAUCAACUUGAAAAAGUGGCACCGAGUCGGUGCACCCUGACGUACGGCGUGCAGUGCUU
DNA 1: GCCGAAGCACTGCACGCCGT
DNA 2: ACGGCGTGCAGTGCTTCGGC
- activity: ≥ 100 % of reference
